Assays:
[1] = Autosampler (re-injection) stability at 4°C for 24 h; format: in vitro ADME; settings: autosampler (AS) 4°C, triplicate, 2D-LC-MS/MS
Experimental: (§3) The stability tests of all insulins were performed at two concentration levels (193 and 7752 pg/mL). One set of tests was performed with artificial plasma and the other set with artificial plasma containing 1% PIC. Each concentration level was tested in triplicate. These QC samples were quantified using an artificial plasma calibration curve without PIC, and the obtained concentrations were compared with the nominal concentrations of the low quality control (LQC) and high quality control (HQC), which were set to 100%. To evaluate the stability of insulins in artificial plasma containing 1% PIC, we considered the concentration measured at time zero as the baseline (100%). All subsequent changes in concentration were calculated relative to this initial measurement.
(§4) Short‐term stability, long‐term stability, and freeze‐thaw stability were evaluated in this study. LQC and HQC samples were stored at room temperature and in a refrigerator for 3, 6, and 24 h to assess short‐term (bench‐top) stability and at 4°C in the autosampler for 24 h to assess re‐injection stability.

[2] = Adsorption test in three types of glass vials; format: physicochemical; settings: 15 ng/mL in 6.7% acetic acid in water:methanol (60:40, v/v), UHPLC-MS/MS, Figure S10
Experimental: We prepared stock solutions of all insulins, which were then transferred to three different types of glass vials and analyzed by LC‐MS/MS. For the adsorption test, a mixture of all insulins at a concentration of 15 ng/mL was prepared in a solvent containing 6.7% acetic acid in a water:methanol mixture (60:40, v/v). The mixture was then transferred to three types of vials and analyzed by UHPLC‐MS/MS. This experiment was performed prior to the optimization of the chromatographic method.

[3] = Short-term (bench-top) stability at room temperature in artificial plasma with and without 1% PIC; settings: triplicate, 2D-LC-MS/MS
Experimental: (§1) A mixed standard solution containing all insulins at a concentration of 10,000 ng/mL was obtained by diluting the stock solutions with artificial plasma. This stock solution was further diluted with artificial plasma to produce a series of calibration standards at the following concentrations: 50, 100, 150, 250, 500, 1,000, 1500, 2500, 5000, 10 000, and 15 000 pg/mL. Quality control (QC) samples were prepared in artificial plasma at 200, 800, 3000, and 9000 pg/mL and analyzed prior to real human plasma samples. For method validation, four concentration levels were prepared in artificial plasma at 50, 125, 6000, and 13 000 pg/mL. Two concentration levels (193 and 7752 pg/mL) were evaluated for stability testing.
(§2) Each concentration level was tested in triplicate.

[4] = Insulin concentrations in patient plasma samples (2D-LC-MS/MS); format: in vivo, human
Experimental: Patient samples were collected in K2EDTA tubes, and centrifuged, and 250 µL aliquots were either analyzed immediately or stored at −80°C for analysis the following day. A previously published method [12] was used for sample preparation, including protein precipitation, conversion of analytes to anions, and micro SPE (µSPE) using Oasis MAX multimodal sorbent (Waters) in a 96‐well design. […] QuanRecovery with MaxPeak 700 µL plates (Waters) were used for elution after SPE and subsequent injection for 2D‐LC‐MS/MS analysis.
To assess the clinical applicability of the proposed method, 30 patient samples (16 males and 15 females) were analyzed. Plasma samples (collected in K2EDTA tubes) were supplied to the Department of Forensic Medicine.

[5] = Short-term stability in refrigerator (4°C) in artificial plasma with and without 1% PIC; settings: triplicate, 2D-LC-MS/MS
Experimental: as §1, §2

[6] = Long-term stability in artificial plasma at −20°C; format: in vitro ADME; settings: triplicate, 2D-LC-MS/MS
Experimental: as §3, §4

[7] = Freeze-thaw stability in artificial plasma after storage at −80°C; format: in vitro ADME; settings: stored at −80°C, triplicate, 2D-LC-MS/MS; for 24 h, change (%): cycle at 24 h; for 48 h, change (%): cycle at 48 h; for 72 h, change (%): cycle at 72 h
Experimental: as §3, §4

[8] = Long-term stability in artificial plasma at −80°C; format: in vitro ADME; settings: triplicate, 2D-LC-MS/MS
Experimental: as §3, §4

[9] = artificial plasma (BZ273) with 1% PIC, 193 pg/mL, % of concentration at time zero (=100%)
[10] = artificial plasma (BZ273) with 1% PIC, 7752 pg/mL, % of concentration at time zero (=100%)
[11] = artificial plasma (BZ273) without PIC, 193 pg/mL, % of nominal concentration (=100%)
[12] = artificial plasma (BZ273) without PIC, 7752 pg/mL, % of nominal concentration (=100%)
[13] = artificial plasma (BZ273) with 1% PIC, 193 pg/mL, % of concentration at time zero
[14] = artificial plasma (BZ273) with 1% PIC, 7752 pg/mL, % of concentration at time zero
[15] = artificial plasma (BZ273) without PIC, 7752 pg/mL, % of nominal concentration

With Human insulin the “24 h AS, change (%)” value ([1]; extracted samples from artificial plasma with 1% PIC, 193 pg/mL, % of concentration at time zero (=100%)) was 105.9%, the “24 h AS, change (%)” value ([1]; extracted samples from artificial plasma without PIC, 7752 pg/mL, % of nominal concentration (=100%)) was 100.5% and the “Difference in concentration between vial types (adsorption to container surfaces)” value [2] was “up to 50%”. For the same substance, the “0 h, change (%)” value [3, 9] was 100.0%, the “24 h, change (%)” value [3, 9] was 72.1% and the “0 h, change (%)” value [3, 10] was 100.0%. The “6 h, change (%)” value [3, 10] was 86.4%, the “24 h, change (%)” value [3, 10] was 67.4% and the “0 h, change (%)” value [3, 11] was 100.1%. The “0 h, change (%)” value [3, 12] was 99.1%, the “6 h, change (%)” value [3, 12] was 95.1% and the “Concentration range (pg/mL) in patient samples” value ([4]; human plasma (K2EDTA), 30 patient samples from the Department of Forensic Medicine (unexplained deaths), range over quantified samples) was 219.1 to 6065.2 pg/mL. The “Concentration in a real patient sample” value ([4]; human plasma, single patient sample of Figure 2) was “LLOQ”, the “3 h 4°C, change (%)” value [5, 9] was 100.4% and the “24 h 4°C, change (%)” value ([5]; artificial plasma (BZ273) with 1% PIC, 193 pg/mL, 24 h, % of concentration at time zero (=100%)) was 87.9%. The “6 h 4°C, change (%)” value [5, 10] was 98.6%, the “6 h 4°C, change (%)” value [5, 11] was 105.6% and the “3 h 4°C, change (%)” value [5, 12] was 90.2%. For the same substance, the “1 week, change (%)” value [6, 13] was 70.1%, the “1 week, change (%)” value [6, 14] was 54.9% and the “2 weeks, change (%)” value [6, 14] was 61.8%. For the same substance, the “2 weeks, change (%)” value ([6]; artificial plasma (BZ273) without PIC, 193 pg/mL, % of nominal concentration) was 106.3%, the “3 weeks, change (%)” value ([6]; 3 weeks, artificial plasma (BZ273) with 1% PIC, 7752 pg/mL, % of concentration at time zero) was 25.9% and the “24 h, change (%)” value [7, 14] was 111.6%. For the same substance, the “24 h, change (%)” value [7, 15] was 100.2%, the “48 h, change (%)” value [7, 13] was 116.6% and the “48 h, change (%)” value [7, 15] was 94.6%. The “72 h, change (%)” value [7, 14] was 92.9%, the “72 h, change (%)” value [7, 15] was 87.1% and the “1 week, change (%)” value ([8]; 1 week, artificial plasma (BZ273) without PIC, 7752 pg/mL, % of nominal concentration) was 100.1%. The “2 weeks, change (%)” value [8, 13] was 105.8%, the “2 weeks, change (%)” value [8, 14] was 111.9% and the “2 weeks, change (%)” value [8, 15] was 106.0%.
